The supplement of paper PMC11246515
± gives the standard deviation of the averaged measurements.

Assay: total protein half-life in vivo (active degradation + dilution); higher = more stable protein
[1] = E. coli NCM3722 delta-clpP delta-lon delta-hslV, growth: N-lim chemostat, doubling time 6 h
[2] = E. coli NCM3722 delta-clpP, growth: N-lim chemostat, doubling time 6 h
[3] = E. coli NCM3722 delta-hslV, growth: N-lim chemostat, doubling time 6 h
[4] = E. coli NCM3722 delta-lon, growth: N-lim chemostat, doubling time 6 h
[5] = E. coli NCM3722 delta-smpB, growth: N-lim chemostat, doubling time 6 h
[6] = wild type E. coli NCM3722, growth: C-lim chemostat, doubling time 3 h
[7] = wild type E. coli NCM3722, growth: C-lim chemostat, doubling time 6 h
[8] = wild type E. coli NCM3722, growth: C-lim chemostat, doubling time 12 h
[9] = wild type E. coli NCM3722, growth: N-lim chemostat, doubling time 6 h
[10] = wild type E. coli NCM3722, growth: N-lim chemostat, doubling time 12 h
[11] = wild type E. coli NCM3722, growth: P-lim chemostat, doubling time 6 h
[12] = wild type E. coli NCM3722, growth: P-lim chemostat, doubling time 12 h

Sequence	total protein half-life in vivo [1]	total protein half-life in vivo [2]	total protein half-life in vivo [3]	total protein half-life in vivo [4]	total protein half-life in vivo [5]	total protein half-life in vivo [6]	total protein half-life in vivo [7]	total protein half-life in vivo [8]	total protein half-life in vivo [9]	total protein half-life in vivo [10]	total protein half-life in vivo [11]	total protein half-life in vivo [12]
MIQPISGPPPGQPPGQGDNLPSGTGNQPLSSQQRTSLESLMTKVTSLTQQQRAELWAGIRHDIGLSGDSPLLSRHFPAAEHNLAQRLLAAQKSHSARQLLAQLGEYLRLGNNRQAVTDYIRHNFGQTPLNQLSPEQLKTILTLLQEGKMVIPQPQQREATDRPLLPAEHNALKQLVTKLAAATGEPSKQIWQSMLELSGVKDGELIPAKLFNHLVTWLQARQTLSQQNTPTLESLQMTLKQPLDASELAALSAYIQQKYGLSAQSSLSSAQAEDILNQLYQRRVKGIDPRVMQPLLNPFPPMMDTLQNMATRPALWILLVAIILMLVWLVR	3.57 ± 0.29 h	3.889 ± 0.021 h	3.71 ± 0.25 h	3.18 ± 0.34 h	3.56 ± 0.12 h	2.64 ± 0.22 h	4.57 ± 0.41 h	6.56 h	3.65 ± 0.16 h	5.38 ± 0.4 h	3.705 ± 0.012 h	6.51 ± 0.24 h
MIQSQINRNIRLDLADAILLSKAKKDLSFAEIADGTGLAEAFVTAALLGQQALPADAARLVGAKLDLDEDSILLLQMIPLRGCIDDRIPTDPTMYRFYEMLQVYGTTLKALVHEKFGDGIISAINFKLDVKKVADPEGGERAVITLDGKYLPTKPF	5.03 ± 0.21 h			5.12 h			5.48 h	10.6 ± 0.58 h	3.64 h	11.9 h		11.1 h
MIRFEHVSKAYLGGRQALQGVTFHMQPGEMAFLTGHSGAGKSTLLKLICGIERPSAGKIWFSGHDITRLKNREVPFLRRQIGMIFQDHHLLMDRTVYDNVAIPLIIAGASGDDIRRRVSAALDKVGLLDKAKNFPIQLSGGEQQRVGIARAVVNKPAVLLADEPTGNLDDALSEGILRLFEEFNRVGVTVLMATHDINLISRRSYRMLTLSDGHLHGGVGHE [P0A9R7]	5.85 ± 0.08 h		5.57 ± 0.067 h	5.62 ± 0.4 h	5.32 ± 0.056 h	2.762 ± 0.02 h	5.52 ± 0.12 h	10.1 ± 0.31 h	5.48 ± 0.17 h	9.44 ± 1.1 h	5.26 ± 0.17 h	11.9 ± 2.3 h
MIRLAPLITADVDTTTLPGGKASDAAQDFLALLSEALAGETTTDKAAPQLLVATDKPTTKGEPLISDIVSDAQQANLLIPVDETPPVINDEQSTSTPLTTAQTMALAAVADKNTTKDEKADDLNEDVTASLSALFAMLPGFDNTPKVTDAPSTVLPTEKPTLFTKLTSEQLTTAQPDDAPGTPAQPLTPLVAEAQSKAEVISTPSPVTAAASPLITPHQTQPLPTVAAPVLSAPLGSHEWQQSLSQHISLFTRQGQQSAELRLHPQDLGEVQISLKVDDNQAQIQMVSPHQHVRAALEAALPVLRTQLAESGIQLGQSNISGESFSGQQQAASQQQQSQRTANHEPLAGEDDDTLPVPVSLQGRVTGNSGVDIFA	2.6 h					0.287 h	0.34 h					
MIRSMTAYARREIKGEWGSATWEMRSVNQRYLETYFRLPEQFRSLEPVVRERIRSRLTRGKVECTLRYEPDVSAQGELILNEKLAKQLVTAANWVKMQSDEGEINPVDILRWPGVMAAQEQDLDAIAAEILAALDGTLDDFIVARETEGQALKALIEQRLEGVTAEVVKVRSHMPEILQWQRERLVAKLEDAQVQLENNRLEQELVLLAQRIDVAEELDRLEAHVKETYNILKKKEAVGRRLDFMMQEFNRESNTLASKSINAEVTNSAIELKVLIEQMREQIQNIE	4.67 ± 0.13 h	4.26 ± 0.17 h	4.15 ± 0.007 h	4.46 ± 0.36 h	4.24 ± 0.048 h	3.203 ± 0.032 h	5.69 ± 0.37 h	9.42 ± 0.49 h	4.21 ± 0.05 h	6.64 ± 0.2 h	5.83 ± 0.37 h	12.9 ± 1.8 h
MISDIRKDAEVRMDKCVEAFKTQISKIRTGRASPSLLDGIVVEYYGTPTPLRQLASVTVEDSRTLKINVFDRSMSPAVEKAIMASDLGLNPNSAGSDIRVPLPPLTEERRKDLTKIVRGEAEQARVAVRNVRRDANDKVKALLKDKEISEDDDRRSQDDVQKLTDAAIKKIEAALADKEAELMQF [P0A805]	4.75 ± 0.095 h	4.0455 ± 0.00085 h	4.18 ± 0.071 h	5.16 ± 0.078 h	3.87 ± 0.05 h	2.851 ± 0.0093 h	4.84 ± 0.37 h	8.3 ± 0.69 h	3.38 ± 0.24 h	5.74 ± 0.96 h	5.04 ± 0.18 h	9.21 ± 0.22 h
MISLFDMFKVGIGPSSSHTVGPMKAGKQFVDDLVEKGLLDSVTRVAVDVYGSLSLTGKGHHTDIAIIMGLAGNEPATVDIDSIPGFIRDVEERERLLLAQGRHEVDFPRDNGMRFHNGNLPLHENGMQIHAYNGDEVVYSKTYYSIGGGFIVDEEHFGQDAANEVSVPYPFKSATELLAYCNETGYSLSGLAMQNELALHSKKEIDEYFAHVWQTMQACIDRGMNTEGVLPGPLRVPRRASALRRMLVSSDKLSNDPMNVIDWVNMFALAVNEENAAGGRVVTAPTNGACGIVPAVLAYYDHFIESVSPDIYTRYFMAAGAIGALYKMNASISGAEVGCQGEVGVACSMAAAGLAELLGGSPEQVCVAAEIGMEHNLGLTCDPVAGQVQVPCIERNAIASVKAINAARMALRRTSAPRVSLDKVIETMYETGKDMNAKYRETSRGGLAIKVQCD	3.76 ± 0.4 h	3.54 ± 0.37 h	1.9 ± 0.28 h	2.48 ± 0.38 h	1.78 ± 0.14 h	1.52 ± 0.084 h	2.267 ± 0.0096 h	3.25 ± 0.43 h	2.08 ± 0.26 h	2.57 ± 0.32 h	3.4 ± 0.63 h	7.67 ± 0.65 h
